Legend:
[1] = biological target: Kv7.4 (KCNQ4) B segment (Q4B, residues 522-557), tag removed (human) (UniProt P56696); assay: SEC-MALS
[2] = biological target: Kv7.5 (KCNQ5) B-D construct (Q5BD), tag removed (human) (UniProt Q9NR82); assay: SEC

Sequence of UniProt P56696 (P56696 522-557): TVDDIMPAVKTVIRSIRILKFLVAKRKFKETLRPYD

| Substance | stoichiometry N [1] | stoichiometry N [2] |
| --- | --- | --- |
| Calmodulin (CaM), full-length native (from UniProt P0DP23 1-149) (natural protein) | 1 | – |
| Kv7.5 (KCNQ5) B-D construct (Q5BD), tag removed (from UniProt Q9NR82 1-932) (domain or fragment) | – | 4 |

Reference: article PMC3540129
